# Measurements published in publication PMC7655567.
# B1: AtGOX1 (Arabidopsis thaliana) (protein)
# chain: MEITNVTEYDAIAKQKLPKMVYDYYASGAEDQWTLQENRNAFARILFRPRILIDVSKIDMTTTVLGFKISMPIMVAPTAMQKMAHPDGEYATARAASAAGTIMTLSSWATSSVEEVASTGPGIRFFQLYVYKNRNVVEQLVRRAERAGFKAIALTVDTPRLGRRESDIKNRFTLPPNLTLKNFEGLDLGKMDEANDSGLASYVAGQIDRTLSWKDVQWLQTITKLPILVKGVLTGEDARIAIQAGAAGIIVSNHGARQLDYVPATISALEEVVKATQGRIPVFLDGGVRRGTDVFKALALGASGIFIGRPVVFSLAAEGEAGVRKVLQMLRDEFELTMALSGCRSLKEISRNHITTEWDTPRPSARL
# Substrate: O=C(O)CO
# Test: purified protein
# Conditions: 2 mM FMN, 5 mM MgSO4, 0.5 mM EDTA, 3 mM phenylhydrazine; measured in parallel with RcGOX
protein,measurement,value
B1,Km,390 ± 100 µM
same,kcat,1.04 ± 0.237 s⁻¹
